In US6500669, “Programmable genotoxic agents and uses therefor” (Massachusetts Institute of Technology):

Target: streptavidin (UniProt P22629 P22629:25-183)
Experiment: EMSA; half-maximum binding (C1/2) via biotin on the adduct; reversed by free d-biotin; 100 mM NaCl, MgCl2, pH 7.4, room temperature
Settings: tags: Pierce; chain copies: 4; label: 5' 32P
Description: Gel Mobility Shift Assay. […] A constant amount of the lesioned U-17 (3200 cpm, ~0.1 nM) was used in each incubation, with the concentration of streptavidin varied from 0 to 50 nM. Free d-biotin (0.4 mM) was added into the incubation(s) where indicated. After electrophoresis, the gel was dried and exposed to x-ray film with an intensifying screen. The dried gel was also exposed to a PhorphorImager screen and the data were analyzed with IMAGEQUANT software (Molecular Dynamics, Sunnyvale, Calif.).

Sequence of streptavidin (P22629 25-183, one chain of several): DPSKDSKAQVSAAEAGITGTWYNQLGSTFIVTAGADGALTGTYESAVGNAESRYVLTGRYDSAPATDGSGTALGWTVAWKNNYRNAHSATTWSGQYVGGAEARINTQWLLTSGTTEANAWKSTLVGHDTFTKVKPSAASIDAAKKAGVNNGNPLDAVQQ

B1: TMP-biotin monoadducted U-17 (dsDNA)
DNA 1: CGGCCGTACGUGCGCCG
DNA 2: CGGCGCACGTACGGCCG
modifications: TMP-biotin (psoralen-biotin) monoadduct at T7 of the central TA; deoxyuridine at position 11
In the case of B1, the Kd is reported as about 1.5 nM.
